Source: patent US20140057807A1 (UNIVERSITY OF CHICAGO, published 2014)

Target: T1, human serum albumin (human, UniProt P02768 25-609)
T1 construct: also called HSA
Assay: cradle library selection hit

T1 sequence (P02768 25-609 limits assumed): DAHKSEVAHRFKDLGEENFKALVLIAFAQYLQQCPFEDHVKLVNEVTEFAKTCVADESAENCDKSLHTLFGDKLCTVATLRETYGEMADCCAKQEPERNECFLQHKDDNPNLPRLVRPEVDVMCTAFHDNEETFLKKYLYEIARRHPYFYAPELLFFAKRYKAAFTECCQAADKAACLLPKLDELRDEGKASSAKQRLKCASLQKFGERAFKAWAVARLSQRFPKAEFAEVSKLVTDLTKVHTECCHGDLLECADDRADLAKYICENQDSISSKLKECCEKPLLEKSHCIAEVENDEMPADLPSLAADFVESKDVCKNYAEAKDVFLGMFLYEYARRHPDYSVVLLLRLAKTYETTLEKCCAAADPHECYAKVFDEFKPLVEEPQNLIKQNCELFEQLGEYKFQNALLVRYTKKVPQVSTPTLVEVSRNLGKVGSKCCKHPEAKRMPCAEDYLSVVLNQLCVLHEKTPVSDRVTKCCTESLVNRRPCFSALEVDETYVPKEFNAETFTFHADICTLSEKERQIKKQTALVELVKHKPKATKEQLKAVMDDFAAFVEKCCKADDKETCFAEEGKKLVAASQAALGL

binding result | Binder
binds | SEQ ID NO 243 (designed binder) NVSPPRRARVTDATETTITISWRTKTETITLFEVYADPQVSNGTYIQRTIKPDVRSYTITGLQPGTYYRIGLYTLSDYEKSTPVVIDAST
binds | SEQ ID NO 218 (designed binder) VSDVPRDLGVVAATPTSLRISWDAPAVTVRSYDIYYWYTTGGSQEFTVPGSKSTATISGLKPGVMYNIYVTAVDADVGGPISINYRT
binds | SEQ ID NO 216 (designed binder) VSDVPRDLEVVAATPTSLLISWDAPAVTVREYSIYHSWTLVYRRQEFTVPGSKSTATISGLKPGVNYYIYVGAVDNGYGPDPISINYRT
binds | SEQ ID NO 219 (designed binder) VSDVPRDLEVVAATPTSLLISWDAPAVTVRRYYIGYNWQSPAWNQEFTVPGSKSTATISGLKPGVYYQIYVAAVLRYGDYAPISINYRT
binds | SEQ ID NO 207 (designed binder) VSDVPRDLEVVAATPTSLLISWDAPAVTVRSYYIGYSAYDEYGGRQEFTVPGSKSTATISGLKPGVSYSINVFAVYTMTGRAPISINYRT
binds | SEQ ID NO 225 (designed binder) VSDVPRDLEVVAAAPTSLLISWDAPAVTVRKYYIWYGYSYFVAYSSYQEFTVPGSKSTATISGLKPGVRYYIGVLAVKYPGDYYPISINYRT
binds | SEQ ID NO 227 (designed binder) VSDVPRDLEVVAATPTSLLISWDAPAVTVRTYQIEYVSSYYRWTQEFTVPGSKSTATISGLKPGVVYFIYVAAVRDGPNDPISINYRT
binds | SEQ ID NO 232 (designed binder) VSDVPRDLEVVAATPTSLLISWDAPAVTVRGYGIYYGDTGDTQEFTVPGSKSTATISGLKPGVMYSIVVFAVEWYMWQPISINYRT
binds | SEQ ID NO 233 (designed binder) VSDVPRDLEVVAATPTSLLISWDAPAVTVRYYWIQYYIYYSRGTQEFTVPGSKSTATISGLKPGVNYSIGVQAVQAYFGEPISINYRT
binds | SEQ ID NO 205 (designed binder) VSDVPRDLEVVAATPTSLLISWDAPAVTVRIYSIYYYSYVMRGYYFQEFTVLGSKSTATISGLKPGVNYDINVQAVYHRGWRYPISINYRT
binds | SEQ ID NO 204 (designed binder) VSDVPRDLEVVAATPTSLLISWDAPAVTVRYYWIIYWEAWEYVQAQEFTVPGSKSTATISGLKPGVHYGIMVSAVSGEQPWYPISINYRT
binds | SEQ ID NO 230 (designed binder) VSDVPRDLEVVAATPTSLLISWDAPAVTVRNYYIGYRYTVANWCYQEFTVPGSKSTATISGLKPGVSYWITAKAVVFEGDHPISINYRT
binds | SEQ ID NO 222 (designed binder) VSDVPRDLEVVAATPTSLLTSWDAPAVTVRNYAIYYYDDDTGRQEFTVPGSKSTATISGLKPGVDYYIGVEAVWYWVSSPISINYRT
binds | SEQ ID NO 236 (designed binder) VSDVPRDLEVVAATPTSLLISWDAPAVTVRYYYGIYYAGKAGGDYFITQEFTVPGSKSTATISGLKPGVEYRIYVAAVGYHYTPPISINYRT
binds | SEQ ID NO 212 (designed binder) VSDVPRDLEVVAATPTSLLISWDAPAVTVRTYSISYSFGLDYEYDQEFTVPGSKSTATISGLKPGVQYYIVVDAVAGWQYYPISINYRT
binds | SEQ ID NO 231 (designed binder) VSDVPRDLEVVAATPTSLLISWDAPAVTVRKYYIGYKLQVMEPDQEFTVPGSKSTATISGLKPGVEYWIGVDAVSYYWGFDPISINYRT
binds | SEQ ID NO 237 (designed binder) VSDVPRDLEVVAATPTSLLISWDAPAVTVRNYSIKYKYIPYVSHQEFTVPGSKSTATISGLKPGVTYSIRVQAVYYLIERYPISINYRT
binds | SEQ ID NO 228 (designed binder) VSDVPRDLEVVAATPTSLLISWDAPAVTVRSYKISYYGYHWVYQEFTVPGSKSTATISGLKPGVSYLISVSAVDYYGVLPISINYRT
binds | SEQ ID NO 221 (designed binder) VSDVPRDLEVVAATPTSLLISWDAPAVTVRKYQIYYYYSAYVKESQEFTVPGSKSTATISGLKPGVSYNIAVYAVSKSRYQPPISINYRT
binds | SEQ ID NO 234 (designed binder) VSDVPRDLEVVAATPTSLLISWDAPAVTVRSYRIMYSGYYAWEYSRQEFTVPGSKSTATISGLKPGVIYAIHVSAVVTNWEGPISINYRT

binding result | Binder
binds | SEQ ID NO 206 (designed binder) VSDVPRDLEVVAATPTSLLISWDAPAVAVRAYSIDYYHDNGDGTQEFTVPGSKSTATISGLKPGVTYGILVYAVVSNMGIPISINYRT
binds | SEQ ID NO 208 (designed binder) VSDVPRDLEVVAATPTSLLISWDAPAVTVRKYSIYYFSSYSGIAQEFTVPGSKSTATISGLKPGVYYGIYVEAVYHHYSPPISINYRT
binds | SEQ ID NO 214 (designed binder) VSDVPRDLEVVAATPTSLLISWDAPAVTVRSYHIYDYYNVHSYYGQEFTVPGSKSTATISGLKPGVSYAIYVGAVNEKQLGPISINYRT
binds | SEQ ID NO 215 (designed binder) VSDVPRDLEVVAATPTSLLISWDAPAVTVRTYVISYMSYDAQGGQNQEFTVPGSKSTATISGLKPGVAYNIIVSAVGGGQQAVPISINYRT
binds | SEQ ID NO 223 (designed binder) VSDVPRDLEVVAATPTSLLISWDAPAVTVRTYTIWYVQRYAYSQEFTVPGSKSTATISGLKPGVSYSISVRAVSTDRYYPISINYRT
binds | SEQ ID NO 242 (designed binder) NVSPPRRARVTDATETTITISWRTKTETITYFTVDAAPSLVVDNIQRTIKPDVRSYTITGLQPGTYYIILLYTLYNYDALPVVIDAST
binds | SEQ ID NO 220 (designed binder) VSDVPRDLEVVAATPTSLLISWDAPAVTVRSYSIGYFGAYRNWVQEFTVPGSKSTATISGLKPGVTYYIEVYAVYSNPVYPISINYRT
binds | SEQ ID NO 235 (designed binder) VSDVPRDLEVVAATPTSLLISWDAPAVTVRDYWIYYRYSWPYGSQEFTVPGSKSTATISGLKPGVTYDIQVEAVYGSESGPISINYRT
binds | SEQ ID NO 229 (designed binder) VSDVPRDLEVVAATPTSLLISWDAPAVTVRTYYIGYGMYTYGQEFTVPGSKSTTTISGLKPGVVYDIYVWAVGFGRYVDPISINYRT
binds | SEQ ID NO 241 (designed binder) NVSPPRRARVTDATETTITISWRTKTETITSFNVVAYPSSQDGIQRTIKPDVRSYTITGLQPGTGYQIHLTTLGHLSFSPVVIDAST
binds | SEQ ID NO 213 (designed binder) VSDVPRDLEVVAATPTSLLISWDAPAVTVRGYSIKYGSTISADQEFTVPGSKSTATISGLKPGVFYVIMVWAVYYAYANYPISINYRT
binds | SEQ ID NO 210 (designed binder) VSDVPRDLEVVAATPTSLLISWDAPAVTVRKYYITYYRGRSGNQEFTVPGSKSTATISGLKPGVKYHILVSAVKYPFRRLPISINYRT
binds | SEQ ID NO 209 (designed binder) VSDVPRDLEVVAATPTSLLISWDAPAVTVRNYYIQYMVNYNDTQEFTVPGSKSTATISGLKPGVYYDIKVAAVYVAEDRPISINYRT
binds | SEQ ID NO 211 (designed binder) VSDVPRDLEVVAATPTSLLISWDAPAVTVRTYWIVYYRSVYSNGQEFTVPGSKSTATISGLKPGVIYSIRVIAVSYYYYGPISINYRT
binds | SEQ ID NO 224 (designed binder) VSDVPRDLEVVAATPTSLLISWDAPAVTVRYYSIAYWQLYLPVQEFTVPGSKSTATISGLKPGVSYGITVEAVMSGYSIYPISINYRT
binds | SEQ ID NO 244 (designed binder) NVSPPRRARVTDATETTITISWRTKTETITRFFVSAVPFETGTIQRTIKPDVRSYTITGLQPGTAYDIALYTLFGYYYYPVVIDAST
binds | SEQ ID NO 238 (designed binder) VSDVPRDLEVVAATPTSLLISWDAPAVTVRIYYIAYGYYPGWGRAGSQEFTVPGSKSTATISGLKPGVTYGISVSAVEERRKVPISINYRT
binds | SEQ ID NO 240 (designed binder) NVSPPRRARVTDATETTITISWRTKTETITDFEVAALPMVSTGIQRTIKPDVRSYTITGLQPGTTYYISLYTLDDDGPGTPVVIDAST
binds | SEQ ID NO 203 (designed binder) VSDVPRDLEVVAATPTSLLISWDAPAVTVRAYQIRYAYYSVGRQEFTVPGSKSTATISGLRPGVKYHISVYAVNGGMVTDPISINYRT
binds | SEQ ID NO 226 (designed binder) VSDVPRDLEVVAATPTSLLISWDAPAVTVRYHSIGYNYYGMYQEFTVPGSKSTATISGLKPGVYYYIYVRAVTGREAAPISINYRT
